Patent US20170189510A1

target: HLA-A*24 (human); assay: UV-ligand exchange, anti-b2m ELISA

Binder | peptide exchange yield [%]
RYFKGLVF [peptide SEQ ID No 188 RYFKGLVF] | 50 to 75
TYTTVPRVAF [peptide SEQ ID No 172 …] | > 75
IYKVGAPTI [peptide SEQ ID No 185 …] | 50 to 75
TYLRDQHFL [peptide SEQ ID No 187 …] | > 75
MYDSYWRQF [peptide SEQ ID No 179 …] | > 75
IYDDSFIRPVTF [peptide SEQ ID No 180 …] | 50 to 75
RFHPTPLLL [peptide SEQ ID No 193 …] | > 75
LYLDIINLF [peptide SEQ ID No 181 …] | > 75
QYSSVFKSL [peptide SEQ ID No 216 …] | > 75
LYLKLWNLI [peptide SEQ ID No 214 …] | 50 to 75
LYLDKATLI [peptide SEQ ID No 198 …] | 50 to 75
VHIPEVYLI [peptide SEQ ID No 205 …] | 50 to 75
FFPPTRQMGLLF [peptide SEQ ID No 217 …] | > 75
IYTMIYRNL [peptide SEQ ID No 210 …] | > 75
YFDKVVTL [peptide SEQ ID No 215 YFDKVVTL] | 20 to 49
SYALLTYMI [peptide SEQ ID No 192 …] | > 75
EYQENFLSF [peptide SEQ ID No 206 …] | 50 to 75
IYQLDTASI [peptide SEQ ID No 182 …] | 50 to 75
FYSRLLQKF [peptide SEQ ID No 203 …] | 50 to 75
VFTSTARAF [peptide SEQ ID No 183 …] | 50 to 75
VFKASKITF [peptide SEQ ID No 191 …] | 50 to 75
VFQNFPLLF [peptide SEQ ID No 184 …] | > 75
VYPWLGALL [peptide SEQ ID No 177 …] | > 75
TYTQDFNKF [peptide SEQ ID No 208 …] | 50 to 75
EFGSLHLEFL [peptide SEQ ID No 194 …] | < 20
WYVNGVNYF [peptide SEQ ID No 189 …] | 20 to 49
GFFIFNERF [peptide SEQ ID No 190 …] | 50 to 75
IFPQFLYQF [peptide SEQ ID No 186 …] | > 75
YYLEVGKTLI [peptide SEQ ID No 211 …] | > 75
IFIEVFSHF [peptide SEQ ID No 178 …] | 50 to 75
